Each block holds one binder with its values, some of them ahead of it.
Key:
PTPRD expressed on cells = molecular target: T1, PTPRD expressed on cells (human, UniProt P23468 21-1912); assay: cell surface interaction assay: streptavidin-tetramerized biotinylated ECD on transfected cells, immunofluorescence
T1 construct: whole, on cells; also called receptor-type tyrosine-protein phosphatase delta

PTPRS expressed on cells = molecular target: T2, PTPRS expressed on cells (human, UniProt Q13332 30-1948); assay: as above
T2 construct: whole, on cells; also called receptor-type tyrosine-protein phosphatase S

[1] = molecular target: T3, PTPRZ1 expressed on cells (human, UniProt P23471 25-2315); assay: cell surface interaction assay: query ECD tetramerised with fluorescent streptavidin on transfected cells, immunofluorescence
T3 construct: whole, on cells

PTPRM expressed on cells = molecular target: T4, PTPRM expressed on cells (human, UniProt P28827 21-1452); assay: as above
T4 construct: whole, on cells
T4 sequence (P28827 21-1452): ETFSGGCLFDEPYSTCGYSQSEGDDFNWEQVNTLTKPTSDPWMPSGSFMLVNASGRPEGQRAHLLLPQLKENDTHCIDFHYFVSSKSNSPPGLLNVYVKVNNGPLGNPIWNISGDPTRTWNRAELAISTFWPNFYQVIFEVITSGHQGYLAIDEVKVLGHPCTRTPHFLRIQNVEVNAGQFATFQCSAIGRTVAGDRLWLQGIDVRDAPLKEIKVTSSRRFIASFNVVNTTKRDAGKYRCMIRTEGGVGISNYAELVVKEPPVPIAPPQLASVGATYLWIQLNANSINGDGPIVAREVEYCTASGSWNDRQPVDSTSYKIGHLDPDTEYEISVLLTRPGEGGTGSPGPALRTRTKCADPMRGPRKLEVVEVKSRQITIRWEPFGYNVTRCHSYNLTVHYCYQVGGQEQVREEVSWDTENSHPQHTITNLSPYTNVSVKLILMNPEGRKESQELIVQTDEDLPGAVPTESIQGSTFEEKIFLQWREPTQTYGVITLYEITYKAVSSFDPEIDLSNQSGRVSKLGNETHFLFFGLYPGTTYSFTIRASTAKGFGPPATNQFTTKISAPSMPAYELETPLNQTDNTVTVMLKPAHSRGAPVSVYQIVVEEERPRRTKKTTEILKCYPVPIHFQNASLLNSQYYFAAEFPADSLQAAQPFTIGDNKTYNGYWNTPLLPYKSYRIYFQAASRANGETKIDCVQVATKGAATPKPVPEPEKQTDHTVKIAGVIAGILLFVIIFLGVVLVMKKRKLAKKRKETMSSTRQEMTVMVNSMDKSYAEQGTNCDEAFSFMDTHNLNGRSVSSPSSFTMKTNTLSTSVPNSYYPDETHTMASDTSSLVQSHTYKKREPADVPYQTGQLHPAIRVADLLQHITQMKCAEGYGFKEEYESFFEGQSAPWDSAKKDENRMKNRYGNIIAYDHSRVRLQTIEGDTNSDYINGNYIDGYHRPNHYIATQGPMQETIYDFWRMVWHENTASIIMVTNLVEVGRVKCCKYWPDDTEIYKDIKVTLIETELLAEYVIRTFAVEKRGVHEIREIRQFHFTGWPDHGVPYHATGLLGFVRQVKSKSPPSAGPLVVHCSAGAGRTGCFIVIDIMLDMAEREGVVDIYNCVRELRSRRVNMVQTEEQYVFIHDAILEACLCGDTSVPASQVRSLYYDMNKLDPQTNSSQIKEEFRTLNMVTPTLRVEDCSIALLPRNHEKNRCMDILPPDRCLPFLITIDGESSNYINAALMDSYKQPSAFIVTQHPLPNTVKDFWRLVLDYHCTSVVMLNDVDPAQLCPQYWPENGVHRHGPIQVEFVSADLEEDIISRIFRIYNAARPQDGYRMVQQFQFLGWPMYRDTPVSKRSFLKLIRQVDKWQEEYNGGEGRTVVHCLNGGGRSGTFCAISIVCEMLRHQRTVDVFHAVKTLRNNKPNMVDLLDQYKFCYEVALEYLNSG

PTPRF expressed on cells = molecular target: T5, PTPRF expressed on cells (human, UniProt P10586 30-1907); assay: as above
T5 construct: whole, on cells; also called receptor-type tyrosine-protein phosphatase F
T5 sequence (P10586 30-1907): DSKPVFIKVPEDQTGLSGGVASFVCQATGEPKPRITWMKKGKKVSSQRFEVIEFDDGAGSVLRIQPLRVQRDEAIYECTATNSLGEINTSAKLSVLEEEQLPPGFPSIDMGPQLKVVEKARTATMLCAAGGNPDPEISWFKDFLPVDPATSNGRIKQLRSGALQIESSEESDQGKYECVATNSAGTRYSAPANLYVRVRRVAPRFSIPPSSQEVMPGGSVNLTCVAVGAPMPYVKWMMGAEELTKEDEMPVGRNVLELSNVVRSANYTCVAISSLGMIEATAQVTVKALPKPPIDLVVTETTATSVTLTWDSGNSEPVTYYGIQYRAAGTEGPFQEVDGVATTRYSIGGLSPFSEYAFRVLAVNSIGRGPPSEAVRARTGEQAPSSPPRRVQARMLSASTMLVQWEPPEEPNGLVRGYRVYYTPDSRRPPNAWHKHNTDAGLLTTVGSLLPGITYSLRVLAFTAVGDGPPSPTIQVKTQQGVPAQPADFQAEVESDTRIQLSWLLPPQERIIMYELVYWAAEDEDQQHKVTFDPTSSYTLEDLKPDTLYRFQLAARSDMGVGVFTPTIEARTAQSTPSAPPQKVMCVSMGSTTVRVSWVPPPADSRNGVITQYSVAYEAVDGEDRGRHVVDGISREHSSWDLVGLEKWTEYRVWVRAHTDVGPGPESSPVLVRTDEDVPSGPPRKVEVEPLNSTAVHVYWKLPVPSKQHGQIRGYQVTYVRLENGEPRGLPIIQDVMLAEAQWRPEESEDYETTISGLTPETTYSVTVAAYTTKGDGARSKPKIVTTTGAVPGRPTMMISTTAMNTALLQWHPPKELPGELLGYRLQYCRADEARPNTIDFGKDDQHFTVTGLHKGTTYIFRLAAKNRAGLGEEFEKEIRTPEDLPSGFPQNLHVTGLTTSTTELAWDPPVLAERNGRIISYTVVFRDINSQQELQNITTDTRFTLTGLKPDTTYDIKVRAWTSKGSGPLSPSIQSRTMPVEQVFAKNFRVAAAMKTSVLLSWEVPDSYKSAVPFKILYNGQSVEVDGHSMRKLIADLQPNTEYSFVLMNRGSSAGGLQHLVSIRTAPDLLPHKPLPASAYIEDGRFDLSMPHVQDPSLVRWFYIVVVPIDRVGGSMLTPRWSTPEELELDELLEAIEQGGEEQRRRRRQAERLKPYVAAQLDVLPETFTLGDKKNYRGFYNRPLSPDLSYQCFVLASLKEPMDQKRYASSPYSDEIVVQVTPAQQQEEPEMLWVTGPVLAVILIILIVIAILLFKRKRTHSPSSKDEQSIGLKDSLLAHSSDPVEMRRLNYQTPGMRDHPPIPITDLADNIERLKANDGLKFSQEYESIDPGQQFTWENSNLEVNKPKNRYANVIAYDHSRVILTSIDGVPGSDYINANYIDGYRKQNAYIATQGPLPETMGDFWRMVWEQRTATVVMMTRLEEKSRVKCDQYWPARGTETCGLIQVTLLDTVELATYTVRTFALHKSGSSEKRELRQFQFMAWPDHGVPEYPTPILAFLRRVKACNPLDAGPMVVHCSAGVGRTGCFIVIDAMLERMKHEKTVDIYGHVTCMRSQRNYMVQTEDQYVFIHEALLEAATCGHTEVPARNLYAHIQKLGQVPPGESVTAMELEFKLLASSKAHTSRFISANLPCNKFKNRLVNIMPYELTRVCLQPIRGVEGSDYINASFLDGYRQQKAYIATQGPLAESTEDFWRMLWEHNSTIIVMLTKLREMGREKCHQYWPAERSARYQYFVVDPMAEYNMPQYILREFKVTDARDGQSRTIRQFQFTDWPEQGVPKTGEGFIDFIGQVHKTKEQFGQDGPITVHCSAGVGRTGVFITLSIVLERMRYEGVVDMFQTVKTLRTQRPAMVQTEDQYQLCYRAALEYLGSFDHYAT

PTPRO expressed on cells = molecular target: T6, PTPRO expressed on cells (human, UniProt Q16827 30-1216); assay: as above
T6 construct: whole, on cells
T6 sequence (looked up): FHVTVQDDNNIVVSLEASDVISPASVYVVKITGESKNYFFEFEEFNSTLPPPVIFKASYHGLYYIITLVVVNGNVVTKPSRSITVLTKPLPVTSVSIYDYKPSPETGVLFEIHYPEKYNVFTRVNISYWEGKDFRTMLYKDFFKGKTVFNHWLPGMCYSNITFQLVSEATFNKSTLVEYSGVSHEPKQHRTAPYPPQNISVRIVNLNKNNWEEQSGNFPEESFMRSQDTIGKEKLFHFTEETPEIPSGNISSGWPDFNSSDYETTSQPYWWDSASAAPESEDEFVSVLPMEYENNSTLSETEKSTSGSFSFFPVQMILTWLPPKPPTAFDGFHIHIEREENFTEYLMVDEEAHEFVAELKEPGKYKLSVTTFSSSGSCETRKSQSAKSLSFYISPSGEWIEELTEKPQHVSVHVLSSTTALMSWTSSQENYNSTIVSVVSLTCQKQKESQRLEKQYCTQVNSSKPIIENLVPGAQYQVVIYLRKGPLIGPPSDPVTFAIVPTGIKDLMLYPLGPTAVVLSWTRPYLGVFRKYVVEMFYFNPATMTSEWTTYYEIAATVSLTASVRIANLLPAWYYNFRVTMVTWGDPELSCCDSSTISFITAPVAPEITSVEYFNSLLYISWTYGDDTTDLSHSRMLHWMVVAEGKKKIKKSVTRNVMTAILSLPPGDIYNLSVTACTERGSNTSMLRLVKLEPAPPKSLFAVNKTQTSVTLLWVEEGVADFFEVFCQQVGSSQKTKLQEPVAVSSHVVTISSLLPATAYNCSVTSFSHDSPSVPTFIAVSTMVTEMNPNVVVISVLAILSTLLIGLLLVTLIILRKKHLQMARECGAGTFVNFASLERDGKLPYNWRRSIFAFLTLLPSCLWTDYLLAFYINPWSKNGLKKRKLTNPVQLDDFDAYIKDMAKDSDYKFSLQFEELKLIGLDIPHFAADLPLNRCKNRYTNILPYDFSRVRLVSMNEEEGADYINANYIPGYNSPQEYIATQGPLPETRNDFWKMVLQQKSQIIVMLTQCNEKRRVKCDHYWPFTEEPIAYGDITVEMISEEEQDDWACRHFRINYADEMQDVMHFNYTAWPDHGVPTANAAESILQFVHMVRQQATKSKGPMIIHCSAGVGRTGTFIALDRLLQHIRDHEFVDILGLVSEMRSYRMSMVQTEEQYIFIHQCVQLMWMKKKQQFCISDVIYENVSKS

PTPRT expressed on cells = molecular target: T7, PTPRT expressed on cells (human, UniProt O14522 26-1441); assay: as above
T7 construct: whole, on cells
T7 sequence (looked up): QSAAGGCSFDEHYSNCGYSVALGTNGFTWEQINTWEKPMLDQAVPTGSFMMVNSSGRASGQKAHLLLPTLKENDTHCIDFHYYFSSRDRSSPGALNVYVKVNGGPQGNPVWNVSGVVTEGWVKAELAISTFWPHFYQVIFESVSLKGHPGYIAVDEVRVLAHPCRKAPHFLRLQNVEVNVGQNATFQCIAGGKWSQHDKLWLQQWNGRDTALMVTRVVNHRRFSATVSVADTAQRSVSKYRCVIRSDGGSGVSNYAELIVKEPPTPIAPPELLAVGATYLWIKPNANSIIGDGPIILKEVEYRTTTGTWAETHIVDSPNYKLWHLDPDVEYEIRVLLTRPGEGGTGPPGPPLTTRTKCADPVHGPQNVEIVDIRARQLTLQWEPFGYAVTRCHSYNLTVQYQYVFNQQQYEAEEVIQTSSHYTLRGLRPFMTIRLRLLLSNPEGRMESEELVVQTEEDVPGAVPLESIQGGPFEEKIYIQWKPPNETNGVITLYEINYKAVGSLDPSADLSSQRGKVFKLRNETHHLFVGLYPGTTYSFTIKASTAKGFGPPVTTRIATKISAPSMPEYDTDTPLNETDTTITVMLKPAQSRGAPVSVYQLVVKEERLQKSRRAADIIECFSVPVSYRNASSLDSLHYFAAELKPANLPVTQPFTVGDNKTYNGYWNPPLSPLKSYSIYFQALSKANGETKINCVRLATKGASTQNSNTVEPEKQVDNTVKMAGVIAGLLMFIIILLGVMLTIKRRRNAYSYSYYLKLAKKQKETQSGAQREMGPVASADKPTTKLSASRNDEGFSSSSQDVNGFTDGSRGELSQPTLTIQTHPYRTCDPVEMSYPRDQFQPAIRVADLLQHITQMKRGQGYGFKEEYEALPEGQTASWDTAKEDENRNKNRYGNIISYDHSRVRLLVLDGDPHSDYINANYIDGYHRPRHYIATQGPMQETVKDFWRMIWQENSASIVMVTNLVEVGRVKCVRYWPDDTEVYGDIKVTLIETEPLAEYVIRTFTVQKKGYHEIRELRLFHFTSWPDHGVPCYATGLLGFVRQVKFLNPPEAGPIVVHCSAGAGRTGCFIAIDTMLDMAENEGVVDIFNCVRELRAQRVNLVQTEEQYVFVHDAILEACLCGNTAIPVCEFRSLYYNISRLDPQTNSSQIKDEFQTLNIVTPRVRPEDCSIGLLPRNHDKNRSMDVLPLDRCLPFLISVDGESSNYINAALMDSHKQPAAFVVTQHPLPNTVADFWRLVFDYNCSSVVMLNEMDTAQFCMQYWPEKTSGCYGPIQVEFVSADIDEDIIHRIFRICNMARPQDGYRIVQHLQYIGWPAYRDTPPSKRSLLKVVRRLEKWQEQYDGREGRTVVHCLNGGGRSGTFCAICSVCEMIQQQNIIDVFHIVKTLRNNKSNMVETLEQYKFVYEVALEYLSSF

PTPRG expressed on cells = molecular target: T8, PTPRG expressed on cells (human, UniProt P23470 20-1445); assay: as above
T8 construct: whole, on cells

[2] = molecular target: T9, BTN3A1 full-length (co-IP) (human, UniProt O00481 30-513); assay: co-immunoprecipitation from co-transfected cells, IP anti-FLAG, western blot anti-HA
T9 construct: whole, on cells; also called BTN3A1-HA
T9 sequence (O00481 30-513): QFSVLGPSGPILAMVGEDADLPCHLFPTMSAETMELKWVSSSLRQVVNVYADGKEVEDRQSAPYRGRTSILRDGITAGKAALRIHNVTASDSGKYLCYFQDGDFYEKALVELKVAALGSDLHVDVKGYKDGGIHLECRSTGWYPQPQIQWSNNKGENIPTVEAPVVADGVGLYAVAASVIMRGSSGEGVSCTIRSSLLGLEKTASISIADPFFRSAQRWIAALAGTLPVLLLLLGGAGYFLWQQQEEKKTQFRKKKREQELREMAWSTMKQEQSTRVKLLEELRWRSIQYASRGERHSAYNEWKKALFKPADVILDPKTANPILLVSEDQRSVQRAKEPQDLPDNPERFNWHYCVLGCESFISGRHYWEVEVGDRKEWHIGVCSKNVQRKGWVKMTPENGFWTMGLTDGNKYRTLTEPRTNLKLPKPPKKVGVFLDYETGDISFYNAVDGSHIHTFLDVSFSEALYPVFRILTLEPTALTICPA

[3] = molecular target: T10, LRRC4B expressed on cells (human, UniProt Q9NT99 36-713); assay: cell surface interaction assay: query ECD tetramerised with fluorescent streptavidin on transfected cells, immunofluorescence
T10 construct: whole, on cells; C-terminally tagged in the co-IP; also called NGL-3; LRRC4B-FLAG
T10 sequence (looked up): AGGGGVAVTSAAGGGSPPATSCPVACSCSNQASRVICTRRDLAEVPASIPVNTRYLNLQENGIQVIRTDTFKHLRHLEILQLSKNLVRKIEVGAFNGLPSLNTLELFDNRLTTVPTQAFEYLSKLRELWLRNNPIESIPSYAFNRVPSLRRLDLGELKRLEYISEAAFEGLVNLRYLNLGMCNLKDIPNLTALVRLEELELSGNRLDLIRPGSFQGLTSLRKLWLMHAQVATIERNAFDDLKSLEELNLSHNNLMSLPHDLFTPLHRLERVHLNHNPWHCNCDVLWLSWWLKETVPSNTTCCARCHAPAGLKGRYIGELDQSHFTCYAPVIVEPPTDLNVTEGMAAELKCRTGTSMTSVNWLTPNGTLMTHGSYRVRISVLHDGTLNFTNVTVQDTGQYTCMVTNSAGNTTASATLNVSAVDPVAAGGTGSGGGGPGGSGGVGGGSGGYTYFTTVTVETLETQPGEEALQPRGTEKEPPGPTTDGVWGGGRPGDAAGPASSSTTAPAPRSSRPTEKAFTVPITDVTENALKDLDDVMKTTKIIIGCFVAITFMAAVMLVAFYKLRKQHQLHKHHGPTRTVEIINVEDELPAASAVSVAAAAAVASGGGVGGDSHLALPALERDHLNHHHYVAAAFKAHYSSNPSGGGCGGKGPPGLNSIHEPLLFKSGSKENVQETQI

binding result (PTPRD expressed on cells): binds | binding result (PTPRS expressed on cells): binds | binding result [1]: no binding | binding result (PTPRM expressed on cells): no binding | binding result (PTPRF expressed on cells): no binding | binding result (PTPRO expressed on cells): no binding | binding result (PTPRT expressed on cells): no binding | binding result (PTPRG expressed on cells): no binding
B1: SLITRK2 extracellular domain (receptor, human, UniProt Q9H156 22-621, looked up)
chain: RKTAKDICKIRCLCEEKENVLNINCENKGFTTVSLLQPPQYRIYQLFLNGNLLTRLYPNEFVNYSNAVTLHLGNNGLQEIRTGAFSGLKTLKRLHLNNNKLEILREDTFLGLESLEYLQADYNYISAIEAGAFSKLNKLKVLILNDNLLLSLPSNVFRFVLLTHLDLRGNRLKVMPFAGVLEHIGGIMEIQLEENPWNCTCDLLPLKAWLDTITVFVGEIVCETPFRLHGKDVTQLTRQDLCPRKSASDSSQRGSHADTHVQRLSPTMNPALNPTRAPKASRPPKMRNRPTPRVTVSKDRQSFGPIMVYQTKSPVPLTCPSSCVCTSQSSDNGLNVNCQERKFTNISDLQPKPTSPKKLYLTGNYLQTVYKNDLLEYSSLDLLHLGNNRIAVIQEGAFTNLTSLRRLYLNGNYLEVLYPSMFDGLQSLQYLYLEYNVIKEIKPLTFDALINLQLLFLNNNLLRSLPDNIFGGTALTRLNLRNNHFSHLPVKGVLDQLPAFIQIDLQENPWDCTCDIMGLKDWTEHANSPVIINEVTCESPAKHAGEILKFLGREAICPDSPNLSDGTVLSMNHNTDTPRSLSVSPSSYPELHTEVPLSVL
notes: extracellular domain; Soluble query, streptavidin tetramer; also called SLITKR2

binding result [2]: no binding
B2: VSIG8-FLAG (receptor, human, UniProt P0DPA2 22-414, looked up)
immunoprecipitated protein: VRINGDGQEVLYLAEGDNVRLGCPYVLDPEDYGPNGLDIEWMQVNSDPAHHRENVFLSYQDKRINHGSLPHLQQRVRFAASDPSQYDASINLMNLQVSDTATYECRVKKTTMATRKVIVTVQARPAVPMCWTEGHMTYGNDVVLKCYASGGSQPLSYKWAKISGHHYPYRAGSYTSQHSYHSELSYQESFHSSINQGLNNGDLVLKDISRADDGLYQCTVANNVGYSVCVVEVKVSDSRRIGVIIGIVLGSLLALGCLAVGIWGLVCCCCGGSGAGGARGAFGYGNGGGVGGGACGDLASEIREDAVAPGCKASGRGSRVTHLLGYPTQNVSRSLRRKYAPPPCGGPEDVALAPCTAAAACEAGPSPVYVKVKSAEPADCAEGPVQCKNGLLV
notes: full-length, tagged; also called VSIG8 full-length (co-IP)

binding result [3]: no binding
B3: BTN2A2 extracellular domain (receptor, human, UniProt Q8WVV5 33-265, looked up)
chain: QFTVVGPANPILAMVGENTTLRCHLSPEKNAEDMEVRWFRSQFSPAVFVYKGGRERTEEQMEEYRGRITFVSKDINRGSVALVIHNVTAQENGIYRCYFQEGRSYDEAILRLVVAGLGSKPLIEIKAQEDGSIWLECISGGWYPEPLTVWRDPYGEVVPALKEVSIADADGLFMVTTAVIIRDKYVRNVSCSVNNTLLGQEKETVIFIPESFMPSASPWMVALAVILTASPWM
notes: extracellular domain; Soluble query, streptavidin tetramer

From patent US20220119490A1 (Genentech, published 2022)
